Measured values: patent US20220042018, “APTAMERS AND THE USE THEREOF IN THE TREATMENT OF CANCER” (FUNDACIÓn PARA LA INVESTIGACIÓn BIOMÉDICA …, published 2022)

Key:
MNK1a (MKNK1 isoform a) [1] = target: T1, MNK1a (MKNK1 isoform a) (UniProt Q9BUB5-2 Q9BUB5-2:1-424); test: ELONA; BSA-free aptamer buffer, 37 C; also detected in apta-western; conditions: tags: GST fusion; label: biotin; G4 (parallel, five-tiered from 3- and 2-tier quadruplexes)
Method: (§1) To determine the binding of the aptamers to MNK1a or MNK1b, 200 ng of protein/well diluted in a coating solution (KPL, USA) in a final volume of 100 μL/well were added to a Maxisorp Nunc 96-well ELISA plate (ThermoFisher Scientific, USA). The plate was incubated overnight at 4° C. under stirring. Aptamers were then added at the corresponding concentration according to the assay, in a final volume of 100 μL/well of BSA-free aptamer buffer for 1 hour at 37° C. under stirring. All the aptamers used were labeled with biotin and had been previously denatured at 90° C. for 10 minutes and then kept at 4° C. for 10 minutes in the BSA-free aptamer buffer. To detect the binding of the aptamer to the protein, 100 μL/well of streptavidin-peroxidase (GE Healthcare, United Kingdom) diluted 1/1000 in the aptamer buffer at 37° C. for 1 hour under stirring were added. To develop the plate, 100 μL/well of ABTS solution (Roche, Switzerland) were added, and it was incubated in darkness at room temperature, with measurements being taken every 10 minutes at a wavelength of 405 nm in an Infinite F200 spectrophotometer (TECAN, Switzerland).
(§2) To analyze the affinity of the new aptamer apMNKQ2, ELONA assays were carried out with the four MNK1 constructs.

MNK1b (MKNK1 isoform b) [2] = target: T2, MNK1b (MKNK1 isoform b) (UniProt Q9BUB5-3 Q9BUB5-3:1-347); test: ELONA; BSA-free aptamer buffer, 37 C; four-fold higher affinity than MNK1a; preferentially recognised in native apta-western; conditions: tags: GST fusion; label: biotin; G4 (parallel, five-tiered from 3- and 2-tier quadruplexes)
Method: as §1, §2

MNK1a (MKNK1 isoform a) [3] = target: T1, MNK1a (MKNK1 isoform a); test: recognised both isoforms in a similar manner; data not shown; conditions: tags: GST fusion; label: biotin; G4 predicted
MNK1b (MKNK1 isoform b) [4] = target: T2, MNK1b (MKNK1 isoform b); test: as above; conditions: tags: GST fusion; label: biotin; G4 predicted

T1 sequence (Q9BUB5 other isoform, or with tags, fused parts or gaps): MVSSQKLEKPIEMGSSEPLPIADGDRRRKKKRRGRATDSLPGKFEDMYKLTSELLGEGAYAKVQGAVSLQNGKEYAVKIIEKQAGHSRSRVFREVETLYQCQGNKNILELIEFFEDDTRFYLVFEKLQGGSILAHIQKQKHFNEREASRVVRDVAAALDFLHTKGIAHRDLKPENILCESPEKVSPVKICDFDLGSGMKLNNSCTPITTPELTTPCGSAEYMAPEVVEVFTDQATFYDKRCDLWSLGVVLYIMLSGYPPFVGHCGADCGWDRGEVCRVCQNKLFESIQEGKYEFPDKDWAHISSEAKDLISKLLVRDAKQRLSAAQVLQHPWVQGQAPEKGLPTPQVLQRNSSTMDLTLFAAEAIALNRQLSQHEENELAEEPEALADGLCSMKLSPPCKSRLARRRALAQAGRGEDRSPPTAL
T2 sequence (Q9BUB5 other isoform, or with tags, fused parts or gaps): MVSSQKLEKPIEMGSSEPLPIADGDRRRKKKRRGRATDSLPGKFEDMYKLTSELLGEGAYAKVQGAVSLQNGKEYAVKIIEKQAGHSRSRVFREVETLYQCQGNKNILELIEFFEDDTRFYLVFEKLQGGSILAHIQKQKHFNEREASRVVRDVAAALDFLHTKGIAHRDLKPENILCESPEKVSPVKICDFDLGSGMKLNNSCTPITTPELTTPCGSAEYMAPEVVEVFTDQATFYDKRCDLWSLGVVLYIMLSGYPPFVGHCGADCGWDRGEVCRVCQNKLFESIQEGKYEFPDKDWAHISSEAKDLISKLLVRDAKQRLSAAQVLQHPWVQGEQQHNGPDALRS

Binder: TGGGGTGGGCGGGCGGGGGTGGGGGTGGT (structured_DNA) [apMNKQ2]
- Kd (MNK1a (MKNK1 isoform a) [1]): 66.1 nM
- Kd (MNK1b (MKNK1 isoform b) [2]): 15.5 nM

Binder: TTTTTGGGGTGGGCGGGCGGGGGTGGGGGTGGTATGGCGCGTTGGCCC (structured_DNA) [apMNK2FT]
- binding result (MNK1a (MKNK1 isoform a) [3]): binds
- binding result (MNK1b (MKNK1 isoform b) [4]): binds
